These are literature values, as cited in PMC7365847.

Usually Kd stands for the free concentration of one partner at which half of the binding sites on the other are occupied at equilibrium, for simple one-to-one binding.

Where two headings read alike, the source gives them in different places.

Data set [1] has as its target IL-18BP (Homo sapiens) (UniProt O95998).
For data set [2], the target named is IL-1β (Homo sapiens) (UniProt P01584).
Data set [3] has as its target IL-1Ra (Homo sapiens) (UniProt P18510).
The target in data set [4] is IL-1β (Homo sapiens) (UniProt P01584). The source holds these as a separate data set.

Chain of IL-1β (Homo sapiens) (P01584 117-269): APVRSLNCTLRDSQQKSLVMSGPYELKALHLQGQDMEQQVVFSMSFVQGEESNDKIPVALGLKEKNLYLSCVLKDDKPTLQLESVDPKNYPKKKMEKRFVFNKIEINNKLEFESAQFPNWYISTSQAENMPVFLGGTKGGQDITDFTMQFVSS
Chain of sIL-1R2/sIL-1R3 complex (P27930 14-398): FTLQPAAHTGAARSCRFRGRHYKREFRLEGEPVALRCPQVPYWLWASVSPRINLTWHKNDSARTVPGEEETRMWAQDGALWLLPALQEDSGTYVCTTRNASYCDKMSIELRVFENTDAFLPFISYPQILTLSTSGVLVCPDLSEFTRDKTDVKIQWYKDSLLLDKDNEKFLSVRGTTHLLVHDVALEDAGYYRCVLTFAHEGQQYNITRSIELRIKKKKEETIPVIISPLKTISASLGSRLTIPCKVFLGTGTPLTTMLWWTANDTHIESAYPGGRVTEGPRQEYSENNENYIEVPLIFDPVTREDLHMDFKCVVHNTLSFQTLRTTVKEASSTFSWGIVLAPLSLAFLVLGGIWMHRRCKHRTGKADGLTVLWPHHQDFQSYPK
Chain of sIL-1R2/sIL-1R3 complex (Q9NPH3 21-570, further chain): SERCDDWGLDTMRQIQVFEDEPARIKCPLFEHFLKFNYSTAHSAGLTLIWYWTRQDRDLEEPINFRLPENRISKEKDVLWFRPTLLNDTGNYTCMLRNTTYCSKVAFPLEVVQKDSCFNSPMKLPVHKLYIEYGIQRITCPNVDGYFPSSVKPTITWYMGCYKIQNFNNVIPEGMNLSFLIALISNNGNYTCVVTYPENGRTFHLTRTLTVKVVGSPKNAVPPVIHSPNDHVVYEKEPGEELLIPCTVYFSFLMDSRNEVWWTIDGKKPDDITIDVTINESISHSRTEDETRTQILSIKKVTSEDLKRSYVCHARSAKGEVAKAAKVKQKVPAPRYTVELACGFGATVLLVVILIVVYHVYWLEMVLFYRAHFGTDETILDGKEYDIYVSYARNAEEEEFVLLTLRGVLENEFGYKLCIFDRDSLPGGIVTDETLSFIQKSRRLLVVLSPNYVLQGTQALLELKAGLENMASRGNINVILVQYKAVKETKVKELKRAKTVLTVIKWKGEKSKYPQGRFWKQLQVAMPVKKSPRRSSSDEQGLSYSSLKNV
Chain of IL-1Ra (Homo sapiens) (P18510 26-177): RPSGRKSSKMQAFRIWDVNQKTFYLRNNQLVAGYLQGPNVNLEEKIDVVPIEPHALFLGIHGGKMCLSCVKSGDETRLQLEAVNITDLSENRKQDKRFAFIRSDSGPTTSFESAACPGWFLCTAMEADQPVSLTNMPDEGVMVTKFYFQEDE
Chain of IL-18BP (Homo sapiens) (O95998 31-194): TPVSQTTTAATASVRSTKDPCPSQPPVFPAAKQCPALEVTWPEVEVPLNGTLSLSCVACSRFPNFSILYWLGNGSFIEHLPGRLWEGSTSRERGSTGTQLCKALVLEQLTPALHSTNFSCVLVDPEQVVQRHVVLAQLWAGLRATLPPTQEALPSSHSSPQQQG
Chain of IL-18 (Q14116 37-193): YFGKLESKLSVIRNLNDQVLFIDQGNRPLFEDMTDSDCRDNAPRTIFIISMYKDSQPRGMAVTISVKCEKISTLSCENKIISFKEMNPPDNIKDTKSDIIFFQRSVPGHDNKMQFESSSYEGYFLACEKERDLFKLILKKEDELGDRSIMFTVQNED

Turning to IL-18 (from UniProt Q14116), the equilibrium dissociation constant (Kd) in data set [1] is 0.4 nM. Regarding sIL-1R2 (from UniProt P27930), the Kd was 2.7 nM in data set [2] and 25000 nM in data set [3]. For “sIL-1R2/sIL-1R3 complex (from UniProt P27930)”, in data set [4], the Kd is 0.0056 nM.
